Key:
H3 Mini-HA cluster 1+4 = H3 Mini-HA cluster 1+4 (influenza A virus H3N2, UniProt O11283 17-566); test: FACS on HEK293F [D00010 FIG. 8B]
H3 Mini-HA cluster 1+6 = H3 Mini-HA cluster 1+6 (influenza A virus H3N2, UniProt O11283 17-566); test: FACS on HEK293F [D00010 FIG. 8B]
H3 Mini-HA cluster 1+7 = H3 Mini-HA cluster 1+7 (influenza A virus H3N2, UniProt O11283 17-566); test: FACS on HEK293F [D00010 FIG. 8B]
H3 Mini-HA cluster 1+8 = H3 Mini-HA cluster 1+8 (influenza A virus H3N2, UniProt O11283 17-566); test: FACS on HEK293F [D00010 FIG. 8B]
H3 Mini-HA cluster 1 = H3 Mini-HA cluster 1 (influenza A virus H3N2, UniProt O11283 17-566); test: FACS on HEK293F [D00010 FIG. 8B]
H3 Mini-HA cluster 1+2 = H3 Mini-HA cluster 1+2 (influenza A virus H3N2, UniProt O11283 17-566); test: FACS on HEK293F [D00010 FIG. 8B]
H3 Mini-HA cluster 1+3 = H3 Mini-HA cluster 1+3 (influenza A virus H3N2, UniProt O11283 17-566); test: FACS on HEK293F [D00010 FIG. 8B]
[1] = biological target: H3 Full-length A/Hong Kong/1/1968 (influenza A virus H3N2, UniProt Q91MA7 17-566); test: FACS on HEK293F [D00014 FIG. 10B]
[2] = biological target: H3-mini2-cl9+10+11+13-GCN4 (influenza A virus H3N2); test: FACS on HEK293F [D00012 FIG. 9B]
H3-mini3-cl9+10+11+12+14 = H3-mini3-cl9+10+11+12+14 (influenza A virus H3N2, UniProt O11283 17-566); test: FACS on HEK293F [D00012 FIG. 9B]
H3-mini2-cl9+10+12 = H3-mini2-cl9+10+12 (influenza A virus H3N2, UniProt O11283 17-566); test: FACS on HEK293F [D00012 FIG. 9B]
H3-mini2-cl9+10+11+12 = H3-mini2-cl9+10+11+12 (influenza A virus H3N2, UniProt O11283 17-566); test: FACS on HEK293F [D00012 FIG. 9B]
H3-mini2-cl9+10+11 = H3-mini2-cl9+10+11 (influenza A virus H3N2, UniProt O11283 17-566); test: FACS on HEK293F [D00012 FIG. 9B]
H3-mini2-cl9+10+11+13 = H3-mini2-cl9+10+11+13 (influenza A virus H3N2, UniProt O11283 17-566); test: FACS on HEK293F [D00012 FIG. 9B]
H3-mini2-cl9+10+11-tri = H3-mini2-cl9+10+11-tri (influenza A virus H3N2); test: FACS on HEK293F [D00012 FIG. 9B]
[3] = biological target: H3-mini2-cl9+10+11+12-GCN4 (influenza A virus H3N2, UniProt O11283 17-566); test: FACS on HEK293F [D00012 FIG. 9B]
[4] = biological target: H3-mini2-cl9+10+11+12-tri (influenza A virus H3N2, UniProt O11283 17-566); test: FACS on HEK293F [D00012 FIG. 9B]
H3-mini4-cl9+10+11+12+14 = H3-mini4-cl9+10+11+12+14 (influenza A virus H3N2, UniProt O11283 17-566); test: FACS on HEK293F [D00012 FIG. 9B]
H3-mini2-cl9+13 = H3-mini2-cl9+13 (influenza A virus H3N2, UniProt O11283 17-566); test: FACS on HEK293F [D00012 FIG. 9B]
[5] = biological target: H3-mini2-cl9+10+11+13-tri (influenza A virus H3N2); test: FACS on HEK293F [D00012 FIG. 9B]
H3-mini2 = H3-mini2 (influenza A virus H3N2, UniProt O11283 17-566); test: FACS on HEK293F [D00012 FIG. 9B]
H3mini2-cl9+10+11-GCN4 = H3mini2-cl9+10+11-GCN4 (influenza A virus H3N2); test: FACS on HEK293F [D00012 FIG. 9B]
H3-mini2-cl9+10 = H3-mini2-cl9+10 (influenza A virus H3N2, UniProt O11283 17-566); test: FACS on HEK293F [D00012 FIG. 9B]
H3-mini2-cl9+11 = H3-mini2-cl9+11 (influenza A virus H3N2, UniProt O11283 17-566); test: FACS on HEK293F [D00012 FIG. 9B]
[6] = biological target: mini3 cluster11 (A/Brisbane/59/2007) (influenza A virus H1N1, UniProt A8C8J4 18-565); test: FACS on HEK293F
[7] = biological target: mini1 cluster11 (A/Brisbane/59/2007) (influenza A virus H1N1, UniProt A8C8J4 18-565); test: FACS on HEK293F
[8] = biological target: mini2 cluster11 (A/Brisbane/59/2007) (influenza A virus H1N1, UniProt A8C8J4 18-565); test: FACS on HEK293F

Measured: binding result

B1: CR6261 (antibody, V domains shown)
VH: EVQLVESGAEVKKPGSSVKVSCKASGGPFRSYAISWVRQAPGQGPEWMGGIIPIFGTTKYAPKFQGRVTITADDFAGTVYMELSSLRSEDTAMYYCAKHMGYQVRETMDVWGKGTTVTVSS
VL: QSVLTQPPSVSAAPGQKVTISCSGSSSNIGNDYVSWYQQLPGTAPKLLIYDNNKRPSGIPDRFSGSKSGTSATLGITGLQTGDEANYYCATWDRRPTAYVVFGGGTKLTVLG
binds: [6] | [7] | [8]
no binding (tested: 5 ug/ml): H3 Mini-HA cluster 1+4 | H3 Mini-HA cluster 1+6 | H3 Mini-HA cluster 1+7 | H3 Mini-HA cluster 1+8 | H3 Mini-HA cluster 1 | H3 Mini-HA cluster 1+2 | H3 Mini-HA cluster 1+3 | [1] | [2] | H3-mini3-cl9+10+11+12+14 | H3-mini2-cl9+10+12 | H3-mini2-cl9+10+11+12 | H3-mini2-cl9+10+11 | H3-mini2-cl9+10+11+13 | H3-mini2-cl9+10+11-tri | [3] | [4] | H3-mini4-cl9+10+11+12+14 | H3-mini2-cl9+13 | [5] | H3-mini2 | H3mini2-cl9+10+11-GCN4 | H3-mini2-cl9+10 | H3-mini2-cl9+11
